Values quoted from earlier work, collected in article PMC10454195.

Molecular target: GLP-1 receptor (Homo sapiens) (UniProt P43220)
UniProt P43220, sequence (P43220 24-463): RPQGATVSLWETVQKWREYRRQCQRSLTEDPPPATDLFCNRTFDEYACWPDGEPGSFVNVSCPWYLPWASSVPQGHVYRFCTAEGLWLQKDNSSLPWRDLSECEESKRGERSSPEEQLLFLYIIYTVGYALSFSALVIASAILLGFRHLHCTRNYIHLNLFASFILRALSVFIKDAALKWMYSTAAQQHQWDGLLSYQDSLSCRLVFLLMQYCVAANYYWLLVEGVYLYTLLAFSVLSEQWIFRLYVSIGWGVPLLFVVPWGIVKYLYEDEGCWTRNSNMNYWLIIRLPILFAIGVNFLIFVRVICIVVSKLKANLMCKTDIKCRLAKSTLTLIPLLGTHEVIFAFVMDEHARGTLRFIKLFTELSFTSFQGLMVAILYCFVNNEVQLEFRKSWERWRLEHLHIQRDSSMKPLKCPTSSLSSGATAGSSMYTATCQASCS

GLP-1, sequence (P01275 98-127): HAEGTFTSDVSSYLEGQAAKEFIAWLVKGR

## GLP-1 (from UniProt P01275)
  Kd: 5 nM
